We go through 72 sequences from the supplement of paper PMC10567573.

This data set is described as follows: protein stability index of a GFP-peptide fusion (GPS, HEK-293T) (PSI 1-6); higher = more stable.
Where [1] appears, read: treatment: DMSO, c terminus: a fixed tail appended.
[2] abbreviates: treatment: MLN4924 1 uM, 8 h, c terminus: a fixed tail appended.

± gives the standard deviation.
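Further: 24-mer peptide tiles fused after GFP, lentivirally expressed, FACS-sorted into six equal bins by GFP/DsRed ratio, decoded by Illumina sequencing, PSI is the read-weighted mean bin number.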

In the case of HAQTFVALCATDVKFISNPPSMVA [CCND1], the protein stability index is, setting by setting: under setting [1], 2.11 ± 0.29; under setting [2], 2.08 ± 0.46.

Sequence HARNGLSLKEEHRAYDLLRAASEN [IKZF1] displayed a protein stability index under setting [1] of 3.73 ± 0.28 and a protein stability index under setting [2] of 4.03 ± 0.35.

Regarding HCASPPPSSNNKELFYRVNYIGTK [NSDHL], the protein stability index amounted to 3.18 ± 0.17 under setting [1] and 3.31 ± 0.19 under setting [2].

For the sequence HDIDCQWVDITDVPPGDYLFQVVI [LOXL2], the protein stability index under setting [1] is 3.01 ± 0.2 and the protein stability index under setting [2] came out at 2.92 ± 0.41.

For HDYHGILVDEEEKVLIQKNLGPKS [ADD1], the protein stability index is 4.79 ± 0.33 under setting [1] and 4.9 ± 0.075 under setting [2].

Turning to HEDHMVNLRYGFTKEVMNKYKVHG [PPEF2], the protein stability index by setting is: under setting [1], 3.24 ± 0.51; under setting [2], 3.58 ± 0.53.

For HEPLSKERVEAFSDGVYAIVATLL [TMEM175], the protein stability index worked out at 2.15 ± 0.28 under setting [1] and 2.15 ± 0.11 under setting [2].

Turning to HGASPGLRDGGGLTPLELLLRQLG [ANKRD9], the protein stability index by setting is: under setting [1], 2.66 ± 0.15; under setting [2], 2.76 ± 0.35.

Turning to HGDSQQTHLLKQGRSSMGTGLSGG [CRY1], the protein stability index runs as follows: under setting [1], 4.36 ± 0.16; under setting [2], 4.43 ± 0.14.

HGGLYKPVQCHPSTGYCWCVLVDT [SMOC2]: the protein stability index under setting [1] turned out to be 2.46 ± 0.86 and the protein stability index under setting [2] amounted to 2.39 ± 0.74.

HHHLHKTLREITDQEHNVAALKQA [TEKT4]: the protein stability index amounted to 4.35 ± 0.13 under setting [1] and 4.52 ± 0.11 under setting [2].

Turning to HHSTQPKRNKRNPIFQDSQDTEVF [FAM104B], the protein stability index by setting is: under setting [1], 4.19 ± 0.34; under setting [2], 4.63 ± 0.27.

As to HKSHRGMTPAEAEMHFLENAKKLS [EPB41L3], the protein stability index runs as follows: under setting [1], 4.38 ± 0.21; under setting [2], 4.25 ± 0.47.

On to HLNGHAMCQTKHSPWADGTPCGPA [ADAMTS4], for which the protein stability index runs as follows: under setting [1], 3.12 ± 0.35; under setting [2], 3.11 ± 0.22.

Consider HLVPEPDRLEEQLPWLSLRALKFR [DNAAF3], for which the protein stability index worked out at 2.63 ± 0.1 under setting [1] and 2.78 ± 0.26 under setting [2].

With HMGTNVIVANTMPTHLSNGQMSTP [HNF4A], the protein stability index reads like this: under setting [1], 3.6 ± 0.18; under setting [2], 3.66 ± 0.33.

Take HMILENCSISKMEEEAGQTSIEPS [ZER1]: the protein stability index is, setting by setting: under setting [1], 5.14 ± 0.13; under setting [2], 5.2 ± 0.18.

For the sequence HNAHQLAAWCLHHICTNYNSVCSK [RHOBTB1], the protein stability index reads like this: under setting [1], 2.85 ± 0.55; under setting [2], 2.79 ± 0.59.

As for HNAWLSYSLLPQSTAPGLFLVSTH [PCDHGC5], the protein stability index was found to be 2.51 ± 0.58 under setting [1] and 2.63 ± 0.56 under setting [2].

As for HQLVMEGYNWCHDRNVVTIFSAPN [PPP2CA], the protein stability index was 2.51 ± 0.14 under setting [1] and 2.49 ± 0.18 under setting [2].

With HTGDKPYKCAECGKSFCHSTHLTV [ZNF8], the protein stability index by setting is: under setting [1], 3.8 ± 0.12; under setting [2], 3.85 ± 0.36.

Turning to HTPLISKSQSLRSVRRSESWARPR [RASAL3], the protein stability index by setting is: under setting [1], 3.45 ± 0.29; under setting [2], 3.66 ± 0.22.

On to HTPQSSVKTSVPSSKSSGDLVDLF [CLINT1], for which the protein stability index runs as follows: under setting [1], 4.03 ± 0.16; under setting [2], 4.26 ± 0.053.

HTSVVCYLLDYPNNLLSAPPPDVT [ANKRD17]: the protein stability index was found to be 2.46 ± 0.39 under setting [1] and 2.26 ± 0.44 under setting [2].

For HVPLLAEPSFAQFSQEIGLASLGA [TPH1], the protein stability index reads like this: under setting [1], 2.93 ± 0.26; under setting [2], 3.09 ± 0.12.

With HYEFNLSRMKFRGNGALSNISDLP [LCOR], the protein stability index reads like this: under setting [1], 2.7 ± 0.18; under setting [2], 2.76 ± 0.23.

Turning to HYRELLDSLPMDAYTHGCILHPEL [GDAP1], the protein stability index was 2.36 ± 0.2 under setting [1] and 2.43 ± 0.034 under setting [2].

As to IDGIQAIYGRSQNPVQPIGPQTPK [MMP1], the protein stability index under setting [1] was 3.97 ± 0.074 and the protein stability index under setting [2] was determined as 4.07 ± 0.36.

Take IDLLTFLTGQKAVKVHGLLKTFVK [GFOD1]: the protein stability index runs as follows: under setting [1], 2.93 ± 0.62; under setting [2], 2.67 ± 0.31.

Turning to IDQWKNKIWPEIKVPRPDALDNES [RETREG3], the protein stability index is, setting by setting: under setting [1], 4.14 ± 0.24; under setting [2], 4.3 ± 0.27.

As to IDRQKCMAHRTRYPTILQLAGYQ [TEKT4], the protein stability index reads like this: (treatment: DMSO, c terminus: native) 2.26 ± 0.37; (treatment: MLN4924 1 uM, 8 h, c terminus: native) 2.14 ± 0.35.

As to IEKVSVSTQTKKLSASSPRMLHRS [ZMYND11], the protein stability index reads like this: under setting [1], 3.96 ± 0.23; under setting [2], 4.03 ± 0.34.

For the sequence IEQQQIRNALENIRKEMKLLEQAG [CRYL1], the protein stability index stood at 3.84 ± 0.17 under setting [1] and 4.27 ± 0.62 under setting [2].

On to IFATKPHVLPAVLAEVAPVVTTEH [PYCR3], for which the protein stability index was 3.33 ± 0.38 under setting [1] and 3.4 ± 0.21 under setting [2].

As for IFSFGQLPLALVTWVPMFLSTLLA [SOAT2], the protein stability index worked out at 2.9 ± 0.43 under setting [1] and 2.72 ± 0.56 under setting [2].

Take IGPLETMHLNAEGMLSYCDRYSEG [CRYL1]: the protein stability index is, setting by setting: under setting [1], 3.47 ± 0.48; under setting [2], 3.27 ± 0.28.

Regarding IHGGVVNIHENKRTGSLFKIWLVV [KLHDC10], the protein stability index is 2.85 ± 0.47 under setting [1] and 2.45 ± 0.62 under setting [2].

On to IIELRRTVNALEIELQAQHSMRNS [KRT36], for which the protein stability index by setting is: under setting [1], 2.38 ± 0.26; under setting [2], 2.32 ± 0.33.

IKIIKNKKAFLNQAQIELRLLELM [DYRK1B]: the protein stability index runs as follows: under setting [1], 2.75 ± 0.47; under setting [2], 2.6 ± 0.43.

Turning to IKKLIYVHLVIWLLLVAKMSVGHL [JAGN1], the protein stability index under setting [1] came to 3.31 ± 0.35 and the protein stability index under setting [2] turned out to be 3.13 ± 0.24.

IKLLQSSGADFHKKDKCGRTPLHY [ANKRD44]: the protein stability index runs as follows: under setting [1], 2.42 ± 0.2; under setting [2], 2.6 ± 0.38.

In the case of IKVTSATSVNLGILTADLYSLFVG [SLC35F2], the protein stability index runs as follows: under setting [1], 3.07 ± 0.36; under setting [2], 2.92 ± 0.42.

Take ILAVSFAPLVQPSKNDNGKPDSVG [PCMTD1]: the protein stability index is 2.98 ± 0.27 under setting [1] and 3.14 ± 0.35 under setting [2].

As for ILIELAMRGRIYLEPPTMRKKRLL [GOLPH3L], the protein stability index worked out at 2.66 ± 0.25 under setting [1] and 2.74 ± 0.66 under setting [2].

In the case of ILIIRFEMPYNIWCDGCKNHIGMG [YJU2B], the protein stability index was 3.24 ± 0.36 under setting [1] and 2.96 ± 0.71 under setting [2].

For the sequence ILLEYCSRRSMAHILKARKVLTEP [PLK2], the protein stability index under setting [1] worked out at 2.48 ± 0.5 and the protein stability index under setting [2] was 2.18 ± 0.33.

On to ILPKQSRKSMLDAGPDSWGSDAEQ [LCOR], for which the protein stability index is, setting by setting: under setting [1], 4.51 ± 0.15; under setting [2], 4.55 ± 0.21.

In the case of ILVYDIANRWSFDGIDRWIKEIDE [RAB40B], the protein stability index runs as follows: under setting [1], 2.11 ± 0.57; under setting [2], 1.93 ± 0.31.

Take INGLRRVLDELTLARADLEMQIEN [KRT17]: the protein stability index under setting [1] came to 3.1 ± 0.45 and the protein stability index under setting [2] is 2.82 ± 0.38.

For IPSTPEEVSADDETPNPPQSAQIA [MAGEA10], the protein stability index runs as follows: under setting [1], 5.42 ± 0.1; under setting [2], 5.44 ± 0.16.

With IQRIDENVLGAQLDVEAAHSEILK [STX5], the protein stability index runs as follows: under setting [1], 4.15 ± 0.17; under setting [2], 4.22 ± 0.25.

With IQSGAWVCYQYPGYRGYQYILECD [CRYBA1], the protein stability index runs as follows: under setting [1], 2.39 ± 0.38; under setting [2], 2.58 ± 0.59.

For IRRFLSAFHEPQVGLIQAAQQLLC [DFFB], the protein stability index reads like this: under setting [1], 2.18 ± 0.38; under setting [2], 2.14 ± 0.17.

IRVQGREFRAHRAVLAASSPYFHD [ZBTB22]: the protein stability index reads like this: under setting [1], 2.55 ± 0.21; under setting [2], 2.41 ± 0.16.

As for ISHEEQKSVRLARELESREAELRR [CHCHD6], the protein stability index reads like this: under setting [1], 5 ± 0.3; under setting [2], 5.14 ± 0.37.

ISLDVLQPSFPEILLESHMVMIRG [POMT2] yielded a protein stability index under setting [1] of 2.34 ± 0.39 and a protein stability index under setting [2] of 2.41 ± 0.71.

Consider ISSIKEKYPSHSFIGEESVAAGEK [IMPA1], for which the protein stability index by setting is: under setting [1], 4.8 ± 0.13; under setting [2], 4.81 ± 0.23.

In the case of ISVQNYKQVCKIAALHGLEETKKL [KLHL14], the protein stability index came out at 2.29 ± 0.24 under setting [1] and 2.31 ± 0.3 under setting [2].

For IVRLHDSISEEGFHYLVFDLVTGG [CAMK2B], the protein stability index was found to be 2.85 ± 0.66 under setting [1] and 2.65 ± 0.52 under setting [2].

For IVTTVTTVQSRPRIDGKLDSPSRS [C2CD2L], the protein stability index reads like this: under setting [1], 3.4 ± 0.19; under setting [2], 3.49 ± 0.27.

As to IYRDSYPRNPTVRWGYVAMKFAQV [SOAT1], the protein stability index worked out at 2.79 ± 0.47 under setting [1] and 2.67 ± 0.53 under setting [2].

KAKHFKCHICHKKLYTGPGLAIHC [ZNF207]: the protein stability index under setting [1] is 2.33 ± 0.23 and the protein stability index under setting [2] is 2.62 ± 0.76.

In the case of KCILKTPGKINCLRNCKTYQARKP [RHOBTB3], the protein stability index was determined as 2.98 ± 0.17 under setting [1] and 3.03 ± 0.26 under setting [2].

KCKPSLPAEAEGAAQELENQMKER [TMEM120A]: the protein stability index is 5.42 ± 0.19 under setting [1] and 5.49 ± 0.2 under setting [2].

Turning to KCLSIMLAEWEANPLICPVCTKYN [RPAIN], the protein stability index under setting [1] was 2.8 ± 0.73 and the protein stability index under setting [2] stood at 2.29 ± 0.19.

As to KDPRDPEESKEPKEEKQRRRCKPK [GNAS], the protein stability index by setting is: under setting [1], 5.37 ± 0.26; under setting [2], 5.26 ± 0.3.

As for KDRRFAYGRSDVVVLCFSIANPNS [RHOBTB1], the protein stability index by setting is: under setting [1], 2.74 ± 0.54; under setting [2], 2.34 ± 0.46.

As for KEAVTGSRLGQGIGPIHLNEIQCT [LOXL2], the protein stability index was found to be 3.77 ± 0.61 under setting [1] and 3.93 ± 0.47 under setting [2].

For the sequence KEPATMSWLEENVHEVLQAVDAGD [TCF25], the protein stability index reads like this: under setting [1], 5.05 ± 0.25; under setting [2], 5.13 ± 0.17.

In the case of KETDPLTFNFISSLKAICTEIANC [PLD5], the protein stability index by setting is: under setting [1], 2 ± 0.27; under setting [2], 2.05 ± 0.1.

Regarding KEVMLFGHGTRKRVPLGRLELLEE [RSAD1], the protein stability index stood at 3.6 ± 0.19 under setting [1] and 3.59 ± 0.28 under setting [2].

On to KEYAAKFIKKRRLSSSRRGVSREE [DAPK3], for which the protein stability index is, setting by setting: under setting [1], 4.15 ± 0.15; under setting [2], 4.379 ± 0.041.
